Measured values taken from PMC6486636, “LARP4A recognizes polyA RNA via a novel binding mechanism mediated by disordered regions and involving the PAM2w motif, revealing interplay between PABP, LARP4A and mRNA” (Nucleic Acids Research, 2019).
Each block holds one binder with its values, some of them ahead of it.

Experiments:
Conditions in all cases: both partners purified
LARP4A NTD W22A = biological target: T1, LARP4A NTD W22A (human, UniProt Q71RC2 1-287, W22A); test: pull-down; His-SUMO-MLLE (200 ug) as bait mixed with 250 ug untagged LARP4A protein on ice, Ni-NTA agarose, washes in 50 mM Tris pH 7.25, 100 mM KCl, 0.2 mM EDTA, 1 mM DTT, 10 mM imidazole, elution with 500 mM imidazole, Coomassie SDS-PAGE
T1 construct: LARP4A (LARP4), human, residues 1-287, PAM2w single mutant; Generated from the NTD by site-directed mutagenesis; used untagged; source: E. coli Rosetta II, purified (His-Trap, tag cleaved, nickel column, heparin or DEAE); not shown: His6, N-terminal, cleaved

LARP4A NTD L15A = biological target: T2, LARP4A NTD L15A (human, UniProt Q71RC2 1-287, L15A); test: as above
T2 construct: LARP4A (LARP4), human, residues 1-287, PAM2w single mutant; Generated from the NTD by site-directed mutagenesis; used untagged; source: E. coli Rosetta II, purified (His-Trap, tag cleaved, nickel column, heparin or DEAE); not shown: His6, N-terminal, cleaved

[1] = biological target: T3, LARP4A (1-287), N-terminal domain (human, UniProt Q71RC2 1-287); test: as above
T3 construct: LARP4A (LARP4), human, residues 1-287 (NTR 1-111 with PAM2w motif 13-26, plus La module 111-287); The NTD was cloned both with a TEV-cleavable His6 tag (pRSFDuet-1) and with a His6-SUMO tag (pET28SUMO, cut by ULP1); also called NTD; LARP4A NTD; source: E. coli Rosetta II, purified (His-Trap, tag cleaved, nickel column, heparin or DEAE); not shown: His6, N-terminal, cleaved

LARP4A NTD W22F = biological target: T4, LARP4A NTD W22F (human, UniProt Q71RC2 1-287, W22F); test: as above
T4 construct: LARP4A (LARP4), human, residues 1-287, PAM2w single mutant; Generated from the NTD by site-directed mutagenesis; used untagged; source: E. coli Rosetta II, purified (His-Trap, tag cleaved, nickel column, heparin or DEAE); not shown: His6, N-terminal, cleaved

[2] = biological target: T3, LARP4A (1-287), N-terminal domain; test: native gel or EMSA; competition EMSA: MLLE 12.5-200 uM titrated into a pre-formed complex of 7.5 uM LARP4A NTD and 2 nM 32P-oligoA15; competition constant KC from the fraction of bound RNA

T3 sequence (Q71RC2 1-287): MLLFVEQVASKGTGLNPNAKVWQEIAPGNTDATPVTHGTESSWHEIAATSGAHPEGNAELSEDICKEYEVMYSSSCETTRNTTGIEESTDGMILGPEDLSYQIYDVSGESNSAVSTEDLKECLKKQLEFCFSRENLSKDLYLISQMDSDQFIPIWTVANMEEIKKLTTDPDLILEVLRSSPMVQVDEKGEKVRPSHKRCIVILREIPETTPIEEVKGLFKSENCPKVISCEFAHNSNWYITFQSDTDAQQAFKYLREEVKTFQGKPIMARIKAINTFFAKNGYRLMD
T1 sequence (Q71RC2 1-287 W22A): as the sequence (Q71RC2 1-287) above, with W22A counted along it
T4 sequence (Q71RC2 1-287 W22F): as the sequence (Q71RC2 1-287) above, with W22F counted along it
T2 sequence (Q71RC2 1-287 L15A): as the sequence (Q71RC2 1-287) above, with L15A counted along it

binding result (LARP4A NTD W22A): binds
binding result (LARP4A NTD L15A): binds
binding result [1]: binds
binding result (LARP4A NTD W22F): binds
B1: His-SUMO-MLLE (PABPC1 MLLE domain 544-626 fused with a His-tagged SUMO tag) (domain or fragment, UniProt P11940 544-626, looked up)
chain: PLTASMLASAPPQEQKQMLGERLFPLIQAMHPTLAGKITGMLLEIDNSELLHMLESPESLRSKVDEAVAVLQAHQAKEAAQKA
notes: Fragment 544-626 inserted into pET28SUMO; the tag was kept and used as the handle for Ni-NTA capture; source: E. coli Rosetta II, purified; not shown: His6-SUMO, N-terminal, kept

binding result [2]: binds
B2: PABPC1 MLLE (544-626) (domain or fragment, UniProt P11940 544-626, looked up)
chain: B1 chain
notes: also called PABP MLLE; MLLE domain; source: E. coli Rosetta II, purified (glutathione agarose, 3C protease, nickel column, SEC); not shown: GST, N-terminal, cleaved
